T1: human IL-23R extracellular domain Fc-fusion (human, UniProt Q5VWK5 24-355)
T1 construct: extracellular domain; bought; also called IL-23R-Fc
T1 sequence (looked up): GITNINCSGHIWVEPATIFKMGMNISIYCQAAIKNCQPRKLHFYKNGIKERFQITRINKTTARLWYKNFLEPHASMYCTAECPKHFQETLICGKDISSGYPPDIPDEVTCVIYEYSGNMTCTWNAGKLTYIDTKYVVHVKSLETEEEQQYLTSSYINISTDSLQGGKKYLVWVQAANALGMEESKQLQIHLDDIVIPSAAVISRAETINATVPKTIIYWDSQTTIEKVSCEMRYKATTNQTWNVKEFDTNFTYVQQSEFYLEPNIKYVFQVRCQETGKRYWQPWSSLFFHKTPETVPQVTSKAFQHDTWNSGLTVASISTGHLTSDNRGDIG

T2: human IL-23R, cell-expressed (human, UniProt Q5VWK5 24-629)
T2 sequence (looked up): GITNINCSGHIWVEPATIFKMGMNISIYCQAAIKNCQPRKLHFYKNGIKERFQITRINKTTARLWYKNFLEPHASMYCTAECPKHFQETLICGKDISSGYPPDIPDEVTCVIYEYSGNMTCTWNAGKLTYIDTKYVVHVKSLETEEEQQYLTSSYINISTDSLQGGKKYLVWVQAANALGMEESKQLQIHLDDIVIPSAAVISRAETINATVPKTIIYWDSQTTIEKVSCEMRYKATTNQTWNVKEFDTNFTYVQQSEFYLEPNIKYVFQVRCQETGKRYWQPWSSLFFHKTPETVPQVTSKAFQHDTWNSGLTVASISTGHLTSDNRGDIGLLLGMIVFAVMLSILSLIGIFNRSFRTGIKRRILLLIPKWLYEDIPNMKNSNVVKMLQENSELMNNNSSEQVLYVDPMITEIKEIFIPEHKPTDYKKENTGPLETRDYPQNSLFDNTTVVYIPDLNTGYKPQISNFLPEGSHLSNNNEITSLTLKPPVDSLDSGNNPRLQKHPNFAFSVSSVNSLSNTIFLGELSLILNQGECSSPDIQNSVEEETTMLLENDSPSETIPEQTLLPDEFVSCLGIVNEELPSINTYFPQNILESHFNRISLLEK

T3: human IL12Rβ2 extracellular domain Fc-fusion (human, UniProt Q99665 24-622)
T3 construct: extracellular domain; bought; also called IL12Rβ2-Fc; hIL-12Rβ2-Fc
T3 sequence (looked up): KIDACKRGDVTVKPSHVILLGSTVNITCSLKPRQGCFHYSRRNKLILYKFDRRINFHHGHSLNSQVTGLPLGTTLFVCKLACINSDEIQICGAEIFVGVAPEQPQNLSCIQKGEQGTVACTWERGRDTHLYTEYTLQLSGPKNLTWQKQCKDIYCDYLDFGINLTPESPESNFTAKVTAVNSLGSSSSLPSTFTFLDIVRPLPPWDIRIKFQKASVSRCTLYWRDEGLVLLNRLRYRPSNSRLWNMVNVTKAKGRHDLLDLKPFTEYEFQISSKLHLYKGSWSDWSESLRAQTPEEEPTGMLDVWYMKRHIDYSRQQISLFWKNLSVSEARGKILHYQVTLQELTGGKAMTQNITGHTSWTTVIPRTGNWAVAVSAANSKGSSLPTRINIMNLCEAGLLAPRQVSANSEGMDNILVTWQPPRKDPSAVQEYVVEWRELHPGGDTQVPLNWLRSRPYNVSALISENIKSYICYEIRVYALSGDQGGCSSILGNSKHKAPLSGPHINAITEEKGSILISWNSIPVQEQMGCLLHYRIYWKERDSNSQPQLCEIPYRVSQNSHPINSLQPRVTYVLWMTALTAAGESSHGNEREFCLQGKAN

T4: human IL12Rβ2, cell-expressed (human, UniProt Q99665 24-862)
T4 sequence (looked up): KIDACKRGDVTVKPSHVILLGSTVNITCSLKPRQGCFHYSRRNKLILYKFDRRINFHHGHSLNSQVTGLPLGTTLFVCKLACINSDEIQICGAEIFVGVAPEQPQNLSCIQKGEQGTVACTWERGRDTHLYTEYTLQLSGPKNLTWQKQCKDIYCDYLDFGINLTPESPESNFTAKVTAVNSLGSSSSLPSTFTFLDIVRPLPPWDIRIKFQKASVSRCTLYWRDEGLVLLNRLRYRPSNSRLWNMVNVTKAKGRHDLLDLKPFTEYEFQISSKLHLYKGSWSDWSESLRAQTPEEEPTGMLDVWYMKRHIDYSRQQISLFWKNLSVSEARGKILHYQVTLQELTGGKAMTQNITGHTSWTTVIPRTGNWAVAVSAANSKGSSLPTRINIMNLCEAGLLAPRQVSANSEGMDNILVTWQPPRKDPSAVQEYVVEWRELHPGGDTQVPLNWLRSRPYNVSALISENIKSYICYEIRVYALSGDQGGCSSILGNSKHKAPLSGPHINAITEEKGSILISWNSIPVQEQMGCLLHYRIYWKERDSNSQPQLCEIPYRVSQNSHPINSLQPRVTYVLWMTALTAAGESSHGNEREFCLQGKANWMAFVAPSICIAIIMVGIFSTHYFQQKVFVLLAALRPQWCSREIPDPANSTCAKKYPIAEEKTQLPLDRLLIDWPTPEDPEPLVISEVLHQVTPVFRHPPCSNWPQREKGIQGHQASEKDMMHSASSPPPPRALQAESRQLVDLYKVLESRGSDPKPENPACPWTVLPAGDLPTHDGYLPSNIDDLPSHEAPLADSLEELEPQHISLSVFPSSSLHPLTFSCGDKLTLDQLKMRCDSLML


Key:
[1] = molecular target: T5, human CD4, cell-expressed (human, UniProt P01730 26-458); test: flow cytometry on MOLM-13 cells (CD4, no IL12R or IL23R), upper right panel
T5 construct: whole, on cells

[2] = molecular target: T1, human IL-23R extracellular domain …; test: competition ELISA, ratio to monovalent IL23R#20
[3] = molecular target: T5, human CD4, cell-expressed; test: flow cytometry on activated T cells of donor D838 (very high CD4), lower left panel
[4] = molecular target: T2, human IL-23R, cell-expressed; test: cell-based or functional assay
[5] = molecular target: T1, human IL-23R extracellular domain …; test: competition ELISA, coated IL-23 + IL-23R-Fc
[6] = molecular target: T6, human IL12Rβ1, cell-expressed (human, UniProt P42701 24-662); test: flow cytometry on isolated CD8+ T cells of donor D863, anti-Flag detection
T6 construct: whole, on cells; in the context of the heterodimeric receptor; also called IL12Rb1

[7] = molecular target: T1, human IL-23R extracellular domain …; test: competition ELISA, ratio to monovalent IL23R#19
[8] = molecular target: T3, human IL12Rβ2 extracellular domain …; test: competition ELISA, ratio to monovalent IL12Rb2#2
[9] = molecular target: T5, human CD4, cell-expressed; test: flow cytometry on activated T cells of donor D838 (very high CD4, moderate IL12R), upper left panel
[10] = molecular target: T4, human IL12Rβ2, cell-expressed; test: cell-based or functional assay
[11] = molecular target: T3, human IL12Rβ2 extracellular domain …; test: competition ELISA, coated IL-12 + IL12Rβ2-Fc
[12] = molecular target: T5, human CD4, cell-expressed; test: flow cytometry on MOLM-13 cells (CD4, no IL12R or IL23R), upper left panel

Row | Binder | EC50 (read off the curve) [1] [nM] | fold ctrl [2] [fold] | EC50 (read off the curve) [3] [nM] | IC50, IL-17 release, PBMC D840 [4] [nM] | IC50 [5] [nM] | binding result [6] | fold ctrl [7] [fold] | fold ctrl, IL-17 release [4] [fold] | fold ctrl [8] [fold] | EC50 (read off the curve) [9] [nM] | IC50, IFNγ release, PBMC D840 [10] [nM] | IC50, IFNγ release, T cells D839 [10] [nM] | fold ctrl, IFNγ release, PBMC D840 [10] [fold] | fold ctrl, IFNγ release, T cells D839 [10] [fold] | IC50 [11] [nM] | EC50 (read off the curve) [12] [nM]
1 | CD4#8-35GS-IL23R#20 (bispecific antibody, also called BI#44; T023200044) EVQLVESGGGSVQPGGSLTLSCGTSGRTFNVMGWFRQAPGKEREFVAAVRWSSTGIYYTQYADSVKSRFTISRDNAKNTVYLEMNSLKPEDTAVYYCAADTYNSNPARWDGYDFRGQGTLVTVSSGGGGSGGGGSGGGGSGGGGSGGGGSGGGGSGGGGSEVQLVESGGGLVQAGGSLRLSCAASGRTFSSYAMGWFRQAPGKDREFVAAISWIGESTYYADSVKGRFTISRDNAKNTVYLRMNSLKPEDTAVYYCAADLYYTAYVAAADEYDYWGQGTLVTVSS | ~1 | 1.1 | ~1 | 22 | 15 |  |  |  |  |  |  |  |  |  |  | 
2 | IL23R#19-35GS-CD4#8 (bispecific antibody, also called BI#42; T023200042) EVQLVESGGGLVQPGGSLTLSCVASGRTFSTDVMGWFRQAPGKEREFVAAHRTSGISTVYAASVKGRFTISRDNAKNTVYLGMKSLKPEDTAVYVCAAGSDASGGYDYWGQGTLVTVSSGGGGSGGGGSGGGGSGGGGSGGGGSGGGGSGGGGSEVQLVESGGGSVQPGGSLTLSCGTSGRTFNVMGWFRQAPGKEREFVAAVRWSSTGIYYTQYADSVKSRFTISRDNAKNTVYLEMNSLKPEDTAVYYCAADTYNSNPARWDGYDFRGQGTLVTVSS | ~4 |  | ~1 |  | 6.1 | no binding (tested: 250 nM) | 0.3 |  |  |  |  |  |  |  |  | 
3 | CD4#8-35GS-IL23R#19 (bispecific antibody, also called BI#45; T023200045) EVQLVESGGGSVQPGGSLTLSCGTSGRTFNVMGWFRQAPGKEREFVAAVRWSSTGIYYTQYADSVKSRFTISRDNAKNTVYLEMNSLKPEDTAVYYCAADTYNSNPARWDGYDFRGQGTLVTVSSGGGGSGGGGSGGGGSGGGGSGGGGSGGGGSGGGGSEVQLVESGGGLVQPGGSLTLSCVASGRTFSTDVMGWFRQAPGKEREFVAAHRTSGISTVYAASVKGRFTISRDNAKNTVYLGMKSLKPEDTAVYVCAAGSDASGGYDYWGQGTLVTVSS | ~1 |  | ~1 | 24.2 | 6.6 |  | 0.3 | 4.1 |  |  |  |  |  |  |  | 
4 | IL23R#20-35GS-CD4#8 (bispecific antibody, also called BI#43; T023200043) EVQLVESGGGLVQAGGSLRLSCAASGRTFSSYAMGWFRQAPGKDREFVAAISWIGESTYYADSVKGRFTISRDNAKNTVYLRMNSLKPEDTAVYYCAADLYYTAYVAAADEYDYWGQGTLVTVSSGGGGSGGGGSGGGGSGGGGSGGGGSGGGGSGGGGSEVQLVESGGGSVQPGGSLTLSCGTSGRTFNVMGWFRQAPGKEREFVAAVRWSSTGIYYTQYADSVKSRFTISRDNAKNTVYLEMNSLKPEDTAVYYCAADTYNSNPARWDGYDFRGQGTLVTVSS | ~1 | 1.5 | ~1 |  | 11 |  |  |  |  |  |  |  |  |  |  | 
5 | CD4#8-35GS-IL12Rb2#2 (bispecific antibody, defined by its make-up) EVQLVESGGGSVQPGGSLTLSCGTSGRTFNVMGWFRQAPGKEREFVAAVRWSSTGIYYTQYADSVKSRFTISRDNAKNTVYLEMNSLKPEDTAVYYCAADTYNSNPARWDGYDFRGQGTLVTVSSGGGGSGGGGSGGGGSGGGGSGGGGSGGGGSGGGGSEVQLVESGGRLVQAGDSLRLSCAASGRTFTSYRMGWFRQAPGKEREFVSALRWSSGNIDYTYYADSVKGRFSISGDYAKNTVYLQMNSLKAEDTAVYYCAASTRWGVMESDTEYTSWGQGTLVTVSS |  |  |  |  |  |  |  |  | 0.6 | ~1 | 2.1 | 0.76 | 8 | 130 | 25 | ~1

Source: patent US20160251440A1 (Ablynx, published 2016)
